Reference: paper PMC13440416

Test system: LexA (Escherichia coli)
Assay: EMSA

YNN1-LexO naked DNA was tested, and the Kd was under 5 nM.
